From PMC11073785, “YeeD is an essential partner for YeeE-mediated thiosulfate uptake in bacteria and regulates thiosulfate ion decomposition” (PLOS Biology, 2024)
Changes are numbered by the printed parent chain. Names and notes keep the numbering of the source.

B1: Spirochaeta thermophila YeeD (WT), His6-tagged (natural protein, UniProt G0GAP7 1-80, looked up)
chain: MANYQVSKEIDVRGEVCPIPDVEAKRAVQSANDGEIILVRIDYPLSKERIPETVKKLGSEVLEIEEAAPGEWNIYIKVKK
notes: YeeD of Spirochaeta thermophila, residues 1-80, UniProt G0GAP7; 11.3 kDa with the tag; As purified, C17 is partly modified (mass spectrometry: -SH, -S-O2-/-S-S-, -S-SO3-); also called StYeeD; StYeeD(WT); source: E. coli C41(DE3), purified (Ni-NTA, Superdex 200)
B2: StYeeE (Winmispira thermophila DSM 6578) (protein)
chain: MIWTGLLVGFLFGIVLQRGRICFNSAFRDVLLFKDNYLFKLAVFTLALEMILFVLLSQVGLMQMNPKPLNLVGNIIGGFVFGLGMVLAGGCASGVTYRVGEGLTTAWFAALFYGLGAYATKSGAFSWWLSWVGQFKSPLSVEESAYYVKGAGPTISSVLGLNPWIPALVIAALFILWAFGTKTTSRETKFNWKIASVCLALVAGLGFITSTLSGRKYGLGITGGWINLFQGFLTNSPLNWEGLEIVGIILGAGVAAAVAGEFKLRMPKNPVTYLQVGIGGLLMGIGAVTAGGCNIGHFLTGVPQLALSSWLASIFFILGNWTMAWILF
notes: 1-328 aa with C-terminal …-His8, His-tag removed by TEV; expressed in E. coli C41(DE3), purified in DDM, reconstituted in E. coli total lipid liposomes
B3: StYeeD(E15A), His6-tagged (natural protein, Spirochaeta thermophila, UniProt G0GAP7 1-80, looked up)
chain: B1 chain with E15A
notes: YeeD of Spirochaeta thermophila, residues 1-80, UniProt G0GAP7, with E15A; source: E. coli C41(DE3), purified (Ni-NTA, Superdex 200)
B4: StYeeD(V16A), His6-tagged (natural protein, Spirochaeta thermophila, UniProt G0GAP7 1-80, looked up)
chain: B1 chain with V16A
notes: YeeD of Spirochaeta thermophila, residues 1-80, UniProt G0GAP7, with V16A; source: E. coli C41(DE3), purified (Ni-NTA, Superdex 200)
B5: StYeeD(L38A), His6-tagged (natural protein, Spirochaeta thermophila, UniProt G0GAP7 1-80, looked up)
chain: B1 chain with L38A
notes: YeeD of Spirochaeta thermophila, residues 1-80, UniProt G0GAP7, with L38A; source: E. coli C41(DE3), purified (Ni-NTA, Superdex 200)
B6: StYeeD(V39A), His6-tagged (natural protein, Spirochaeta thermophila, UniProt G0GAP7 1-80, looked up)
chain: B1 chain with V39A
notes: YeeD of Spirochaeta thermophila, residues 1-80, UniProt G0GAP7, with V39A; source: E. coli C41(DE3), purified (Ni-NTA, Superdex 200)
B7: StYeeD(Y43A), His6-tagged (natural protein, Spirochaeta thermophila, UniProt G0GAP7 1-80, looked up)
chain: B1 chain with Y43A
notes: YeeD of Spirochaeta thermophila, residues 1-80, UniProt G0GAP7, with Y43A; source: E. coli C41(DE3), purified (Ni-NTA, Superdex 200)
B8: StYeeD(L45A), His6-tagged (natural protein, Spirochaeta thermophila, UniProt G0GAP7 1-80, looked up)
chain: B1 chain with L45A
notes: YeeD of Spirochaeta thermophila, residues 1-80, UniProt G0GAP7, with L45A; source: E. coli C41(DE3), purified (Ni-NTA, Superdex 200)
B9: StYeeD(E48A), His6-tagged (natural protein, Spirochaeta thermophila, UniProt G0GAP7 1-80, looked up)
chain: B1 chain with E48A
notes: YeeD of Spirochaeta thermophila, residues 1-80, UniProt G0GAP7, with E48A; source: E. coli C41(DE3), purified (Ni-NTA, Superdex 200)
B10: StYeeD(R49A), His6-tagged (natural protein, Spirochaeta thermophila, UniProt G0GAP7 1-80, looked up)
chain: B1 chain with R49A
notes: YeeD of Spirochaeta thermophila, residues 1-80, UniProt G0GAP7, with R49A; source: E. coli C41(DE3), purified (Ni-NTA, Superdex 200)
B11: StYeeD(E63A), His6-tagged (natural protein, Spirochaeta thermophila, UniProt G0GAP7 1-80, looked up)
chain: B1 chain with E63A
notes: YeeD of Spirochaeta thermophila, residues 1-80, UniProt G0GAP7, with E63A; source: E. coli C41(DE3), purified (Ni-NTA, Superdex 200)
B12: StYeeD(K8A), His6-tagged (natural protein, Spirochaeta thermophila, UniProt G0GAP7 1-80, looked up)
chain: B1 chain with K8A
notes: YeeD of Spirochaeta thermophila, residues 1-80, UniProt G0GAP7, with K8A; source: E. coli C41(DE3), purified (Ni-NTA, Superdex 200)
B13: StYeeD(E9A), His6-tagged (natural protein, Spirochaeta thermophila, UniProt G0GAP7 1-80, looked up)
chain: B1 chain with E9A
notes: YeeD of Spirochaeta thermophila, residues 1-80, UniProt G0GAP7, with E9A; source: E. coli C41(DE3), purified (Ni-NTA, Superdex 200)

Target: the molecule itself
Assay: SEC; purified His-tagged StYeeD(WT) on Superdex 200 Increase 10/300 GL, 10 mM Tris-HCl pH 8.0, 300 mM NaCl; two peaks compared with gel filtration markers
Settings: not given

Molecule | stoichiometry N
B1 | 2

Substrate: O=S(O)(O)=S
Assay: solid-supported membrane electrophysiology of proteoliposomes, negative peak area
Format: biochemical, Winmispira thermophila
Settings: transport, Na2S2O3 1.25-40 mM exchanged against equal Na2SO4, pH 6.7, Michaelis-Menten fit

Molecule | Km [µM]
B2 | 626.1

Target: T1, Spirochaeta thermophila YeeE (Spirochaeta thermophila, UniProt G0GAP6 1-328)
T1 construct: YeeE of Spirochaeta thermophila, residues 1-328, UniProt G0GAP6; Membrane protein, kept in 0.1% DDM; The His tag was removed with TEV(S219V) protease; also called StYeeE; TsuA; source: E. coli C41(DE3), purified from the membrane fraction in DDM (Ni-NTA, TEV cleavage, Superdex 200)
T1 sequence (looked up): B2 chain
Assay: BLI; StYeeD-His6 (4.82 μM) loaded on a Ni-NTA biosensor, 11.05 μM StYeeE in solution; Octet N1, room temperature; 20 mM Tris-HCl pH 8.0, 300 mM NaCl, 0.1% DDM, 1 mM β-ME; 120 s association, 120 s dissociation; local fitting; 3 measurements. WT was also run with 300 mM Na2SO4 (binding similar) or 300 mM Na2S2O3 (binding significantly decreased)
Settings: both partners purified

Molecule | Kd [µM] | koff [s⁻¹] | kon [M⁻¹ s⁻¹]
B1 | 1.6 ± 0.2 | 0.027 ± 0.0029 | 17000 ± 2900
B3 | 9.5 ± 4.2 | 0.071 ± 0.033 | 7500 ± 1300
B4 | 5.6 ± 0.86 | 0.093 ± 0.023 | 17000 ± 1600
B5 | 1.7 ± 0.055 | 0.032 ± 0.003 | 18000 ± 1300
B6 | 5.4 ± 0.3 | 0.032 ± 0.00058 | 5800 ± 330
B7 | 20 ± 2.1 | 0.16 ± 0.017 | 8200 ± 950
B8 | 1.2 ± 0.1 | 0.035 ± 0.004 | 29000 ± 1600
B9 | 4.5 ± 6.2 | 0.14 ± 0.2 | 17000 ± 10000
B10 | 17 ± 23 | 0.12 ± 0.16 | 9000 ± 1400
B11 | 1.7 ± 0.074 | 0.03 ± 0.0013 | 18000 ± 260
B12 | 4.3 ± 0.61 | 0.037 ± 0.0019 | 8900 ± 1100
B13 | 4.6 ± 0.22 | 0.027 ± 0.0021 | 6000 ± 580

Target: T2, StYeeD (Winmispira thermophila, UniProt G0GAP7)
T2 construct: gene Spith_0735; expressed in E. coli C41(DE3)
T2 sequence (G0GAP7 1-80): B1 chain
Assay: H2S release with fluorescent probe HSip-1; adduct by MALDI-TOF MS
Format: biochemical
Settings: 500 μM thiosulfate, 24.1 μM YeeD, 70 μM β-ME, pH 8.0, 37°C; covalent (C17)

Molecule | H2S release with fluorescent probe HSip-1; adduct by MALDI-TOF MS
O=S(O)(O)=S [thiosulfate ion] | suggesting that YeeD catalyzes the decomposition of thiosulfate as a substrate
